Earlier results on four molecules are cited in publication PMC4501269 (Biochemistry, 2011).

The target in data set [1] is SRC-1 (Homo sapiens) (UniProt Q15788).
For data set [2] the target is unchanged. The source holds these as a separate data set.
The target of data set [3] is SRC-2 (Homo sapiens) (UniProt Q15596). The data set is described as follows: fluorescence cross-correlation spectroscopy.
Data set [4] shares this target. The data set is described as follows: fluorescence cross-correlation spectroscopy. The source holds these as a separate data set.
Data set [5] concerns the target SRC-1 (Homo sapiens) (UniProt Q15788). The data set is described as follows: fluorescence polarization. For orientation: Polarisation of emitted light reports the rotation of a fluorescent probe.
The target in data set [6] is SRC-2 (Homo sapiens) (UniProt Q15596). In words: fluorescence cross-correlation spectroscopy. The source holds these as a separate data set.

pKd: −log10 of the molar value. Like-named read-outs stand apart in the source and are kept apart here.

Chain of estrogen receptor (P03372 whole entry): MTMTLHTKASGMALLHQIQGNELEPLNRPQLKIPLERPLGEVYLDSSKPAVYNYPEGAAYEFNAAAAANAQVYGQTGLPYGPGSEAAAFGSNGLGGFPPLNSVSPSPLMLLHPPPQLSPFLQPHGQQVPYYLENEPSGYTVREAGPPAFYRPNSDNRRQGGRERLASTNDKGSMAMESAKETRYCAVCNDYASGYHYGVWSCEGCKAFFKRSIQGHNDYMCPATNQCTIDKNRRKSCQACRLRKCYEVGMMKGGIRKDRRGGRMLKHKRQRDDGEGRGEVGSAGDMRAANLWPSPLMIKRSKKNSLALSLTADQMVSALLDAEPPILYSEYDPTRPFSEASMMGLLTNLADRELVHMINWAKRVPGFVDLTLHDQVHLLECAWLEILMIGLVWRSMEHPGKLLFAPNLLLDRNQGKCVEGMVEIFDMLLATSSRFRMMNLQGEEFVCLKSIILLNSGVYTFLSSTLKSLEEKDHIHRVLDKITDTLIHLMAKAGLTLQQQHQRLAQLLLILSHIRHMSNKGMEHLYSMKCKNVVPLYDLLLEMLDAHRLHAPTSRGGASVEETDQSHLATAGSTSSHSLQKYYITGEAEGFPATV
Chain of SRC-1 (Homo sapiens) (Q15788 2-1441): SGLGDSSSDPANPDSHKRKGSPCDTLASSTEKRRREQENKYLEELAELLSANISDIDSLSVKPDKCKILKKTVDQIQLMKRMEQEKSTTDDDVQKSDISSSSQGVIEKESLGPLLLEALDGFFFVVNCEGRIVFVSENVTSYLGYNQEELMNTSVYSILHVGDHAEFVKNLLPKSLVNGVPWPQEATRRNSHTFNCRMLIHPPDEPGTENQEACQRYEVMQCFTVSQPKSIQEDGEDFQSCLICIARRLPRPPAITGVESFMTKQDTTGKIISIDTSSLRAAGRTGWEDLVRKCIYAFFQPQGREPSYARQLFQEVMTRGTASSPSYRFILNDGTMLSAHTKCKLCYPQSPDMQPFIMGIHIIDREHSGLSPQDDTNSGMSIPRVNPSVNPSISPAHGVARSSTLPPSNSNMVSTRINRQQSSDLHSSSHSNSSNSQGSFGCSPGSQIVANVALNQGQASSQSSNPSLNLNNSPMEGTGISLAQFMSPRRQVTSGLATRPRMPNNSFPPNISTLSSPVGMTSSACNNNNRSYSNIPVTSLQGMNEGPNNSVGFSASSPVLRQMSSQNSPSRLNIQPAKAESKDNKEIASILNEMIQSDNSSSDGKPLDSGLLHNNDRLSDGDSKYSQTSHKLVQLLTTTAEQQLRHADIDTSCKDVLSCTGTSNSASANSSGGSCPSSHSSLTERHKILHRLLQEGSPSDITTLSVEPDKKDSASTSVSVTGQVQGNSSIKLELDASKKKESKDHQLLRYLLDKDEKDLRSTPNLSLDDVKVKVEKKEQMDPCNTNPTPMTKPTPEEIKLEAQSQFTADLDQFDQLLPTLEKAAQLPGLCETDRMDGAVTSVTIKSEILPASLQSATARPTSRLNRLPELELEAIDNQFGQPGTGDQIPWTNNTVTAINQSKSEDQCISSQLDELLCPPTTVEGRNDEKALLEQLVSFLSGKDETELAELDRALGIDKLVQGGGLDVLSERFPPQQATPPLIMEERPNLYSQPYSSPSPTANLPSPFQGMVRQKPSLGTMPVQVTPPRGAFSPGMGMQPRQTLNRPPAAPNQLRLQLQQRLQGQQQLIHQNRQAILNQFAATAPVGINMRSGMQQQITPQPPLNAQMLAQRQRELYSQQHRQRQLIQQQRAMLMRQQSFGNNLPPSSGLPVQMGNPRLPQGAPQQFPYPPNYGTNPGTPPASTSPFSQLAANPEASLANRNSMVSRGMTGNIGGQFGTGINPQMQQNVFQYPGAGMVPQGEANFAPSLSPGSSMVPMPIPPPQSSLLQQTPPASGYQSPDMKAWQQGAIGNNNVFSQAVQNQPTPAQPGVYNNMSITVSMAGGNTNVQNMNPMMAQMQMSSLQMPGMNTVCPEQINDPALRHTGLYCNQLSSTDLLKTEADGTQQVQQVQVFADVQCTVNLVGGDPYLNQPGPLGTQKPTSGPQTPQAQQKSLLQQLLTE
Chain of SRC-2 (Homo sapiens) (Q15596 2-1464): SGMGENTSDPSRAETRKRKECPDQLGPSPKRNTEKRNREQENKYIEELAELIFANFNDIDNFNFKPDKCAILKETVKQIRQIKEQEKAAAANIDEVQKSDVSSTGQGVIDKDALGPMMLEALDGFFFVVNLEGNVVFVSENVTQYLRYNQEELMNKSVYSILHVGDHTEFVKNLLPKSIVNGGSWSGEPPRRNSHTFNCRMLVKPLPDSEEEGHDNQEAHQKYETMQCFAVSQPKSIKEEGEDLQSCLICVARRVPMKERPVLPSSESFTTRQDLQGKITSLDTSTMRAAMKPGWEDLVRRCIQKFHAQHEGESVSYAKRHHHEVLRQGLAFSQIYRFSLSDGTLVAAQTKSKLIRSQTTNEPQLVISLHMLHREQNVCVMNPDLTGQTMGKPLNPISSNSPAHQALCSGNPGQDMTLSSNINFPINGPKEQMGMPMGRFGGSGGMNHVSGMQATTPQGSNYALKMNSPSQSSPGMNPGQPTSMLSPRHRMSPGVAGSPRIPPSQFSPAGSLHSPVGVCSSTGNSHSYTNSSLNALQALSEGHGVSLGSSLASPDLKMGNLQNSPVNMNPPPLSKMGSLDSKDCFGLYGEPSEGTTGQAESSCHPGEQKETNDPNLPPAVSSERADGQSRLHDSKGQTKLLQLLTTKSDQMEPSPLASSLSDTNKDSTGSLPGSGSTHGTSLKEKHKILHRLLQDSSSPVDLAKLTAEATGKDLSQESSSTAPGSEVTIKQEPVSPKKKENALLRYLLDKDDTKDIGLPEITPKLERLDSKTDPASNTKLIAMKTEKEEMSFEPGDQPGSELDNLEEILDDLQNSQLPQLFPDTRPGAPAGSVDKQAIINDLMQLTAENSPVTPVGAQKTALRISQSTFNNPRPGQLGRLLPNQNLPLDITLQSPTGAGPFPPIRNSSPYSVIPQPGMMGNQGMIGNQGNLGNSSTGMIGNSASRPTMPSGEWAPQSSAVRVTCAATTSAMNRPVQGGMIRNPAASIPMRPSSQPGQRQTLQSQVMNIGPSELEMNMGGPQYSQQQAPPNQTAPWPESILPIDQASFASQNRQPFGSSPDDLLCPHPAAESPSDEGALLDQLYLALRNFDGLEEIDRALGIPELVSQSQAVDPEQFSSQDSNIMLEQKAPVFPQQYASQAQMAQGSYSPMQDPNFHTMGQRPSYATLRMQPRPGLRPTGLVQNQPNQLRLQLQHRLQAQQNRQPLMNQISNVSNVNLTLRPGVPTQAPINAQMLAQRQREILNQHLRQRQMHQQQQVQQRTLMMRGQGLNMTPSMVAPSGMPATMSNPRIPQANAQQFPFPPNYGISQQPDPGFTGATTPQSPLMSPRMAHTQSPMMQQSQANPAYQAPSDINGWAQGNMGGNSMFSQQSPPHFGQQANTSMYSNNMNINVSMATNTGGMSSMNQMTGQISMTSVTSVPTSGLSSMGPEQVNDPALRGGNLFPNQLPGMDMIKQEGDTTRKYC
Chain of PPARγ (from UniProt P37231) (P37231 whole entry): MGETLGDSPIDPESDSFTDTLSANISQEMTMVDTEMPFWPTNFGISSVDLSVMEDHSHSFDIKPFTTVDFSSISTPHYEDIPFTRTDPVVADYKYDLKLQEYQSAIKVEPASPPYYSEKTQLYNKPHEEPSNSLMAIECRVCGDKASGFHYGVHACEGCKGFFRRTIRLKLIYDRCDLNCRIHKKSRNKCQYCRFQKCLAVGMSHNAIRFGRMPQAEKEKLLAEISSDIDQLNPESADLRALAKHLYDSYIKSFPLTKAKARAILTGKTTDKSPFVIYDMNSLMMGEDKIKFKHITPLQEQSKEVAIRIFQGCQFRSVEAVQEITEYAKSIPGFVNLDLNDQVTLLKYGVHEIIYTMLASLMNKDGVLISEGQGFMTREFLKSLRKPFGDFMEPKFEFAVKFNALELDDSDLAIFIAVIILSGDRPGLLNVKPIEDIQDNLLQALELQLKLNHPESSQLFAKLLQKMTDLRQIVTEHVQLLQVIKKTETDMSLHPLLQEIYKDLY
Chain of estrogen receptor LBD (P03372 311-547): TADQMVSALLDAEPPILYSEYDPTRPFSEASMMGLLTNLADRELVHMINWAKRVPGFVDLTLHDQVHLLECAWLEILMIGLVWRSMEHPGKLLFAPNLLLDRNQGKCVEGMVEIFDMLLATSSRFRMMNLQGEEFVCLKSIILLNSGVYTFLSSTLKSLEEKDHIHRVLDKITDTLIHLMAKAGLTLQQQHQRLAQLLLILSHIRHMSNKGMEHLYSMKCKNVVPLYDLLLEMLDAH

Turning to `COc1ccc2c(c1)c(CC(=O)O)c(C)n2C(=O)c1ccc(Cl)cc1` [IDM, indomethacin], in the data set on PPARγ, the “increase in the affinity of PPARγ for SRC-1” value is reported as 30 fold.

On to PPARγ (from UniProt P37231), for which the pKd was 4.47 with SRC-1 (Homo sapiens) [1] and 6.02 with SRC-1 (Homo sapiens) [2].

Consider estrogen receptor (from UniProt P03372), for which the pKd with SRC-2 (Homo sapiens) [3] is more than 8.22; with SRC-2 (Homo sapiens) [4], 6.70; with SRC-1 (Homo sapiens) [5], 7.52; with SRC-2 (Homo sapiens) [6], less than 5.52.

“estrogen receptor LBD (from UniProt P03372)”: the pKd with SRC-1 (Homo sapiens) [5] was 7.52.

The pKd is the negative decadic logarithm of the Kd, by convention in mol/L.
